Data published in PMC10397247.
Read-outs that look alike come from different tables or passages of the source. Each block holds one binder with its values, some of them ahead of it.

Columns and labels:
Assay in all cases: two-hybrid library CCNG1;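 further: natural log of median RNA to DNA barcode read ratio; higher means stronger binding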
4H619-bN = molecular target: T1, 4H619-bN
T1 chain: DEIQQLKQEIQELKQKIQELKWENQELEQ

4H3817-bN = molecular target: T2, 4H3817-bN
T2 chain: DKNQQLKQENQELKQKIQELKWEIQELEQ

4H3638-bN = molecular target: T3, 4H3638-bN
T3 chain: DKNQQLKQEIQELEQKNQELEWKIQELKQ

4H584-bN = molecular target: T4, 4H584-bN
T4 chain: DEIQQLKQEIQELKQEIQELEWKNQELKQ

4H906-bN = molecular target: T5, 4H906-bN
T5 chain: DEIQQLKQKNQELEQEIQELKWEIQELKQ

4H3974-bN = molecular target: T6, 4H3974-bN
T6 chain: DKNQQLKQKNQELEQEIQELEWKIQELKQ

4H850-bN = molecular target: T7, 4H850-bN
T7 chain: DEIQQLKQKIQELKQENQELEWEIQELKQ

4H3631-bN = molecular target: T8, 4H3631-bN
T8 chain: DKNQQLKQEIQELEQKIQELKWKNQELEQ

O10-bA = molecular target: T9, O10-bA
T9 chain: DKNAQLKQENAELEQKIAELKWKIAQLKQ

4H570-bN = molecular target: T10, 4H570-bN
T10 chain: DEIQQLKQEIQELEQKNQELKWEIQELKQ

4H2915-bA = molecular target: T11, 4H2915-bA
T11 chain: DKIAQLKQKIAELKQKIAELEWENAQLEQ

4H2503-bA = molecular target: T12, 4H2503-bA
T12 chain: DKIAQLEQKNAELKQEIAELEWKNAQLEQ

4H348-bA = molecular target: T13, 4H348-bA
T13 chain: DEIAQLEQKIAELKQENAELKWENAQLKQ

4H2588-bA = molecular target: T14, 4H2588-bA
T14 chain: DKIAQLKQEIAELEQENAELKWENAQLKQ

4H477-bA = molecular target: T15, 4H477-bA
T15 chain: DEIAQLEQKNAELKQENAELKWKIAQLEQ

4H2473-bA = molecular target: T16, 4H2473-bA
T16 chain: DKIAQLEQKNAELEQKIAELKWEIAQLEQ

4H2839-bA = molecular target: T17, 4H2839-bA
T17 chain: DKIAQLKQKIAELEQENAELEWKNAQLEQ

4H3277-bA = molecular target: T18, 4H3277-bA
T18 chain: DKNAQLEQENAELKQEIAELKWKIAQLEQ

P11A-bS = molecular target: T19, P11A-bS
T19 chain: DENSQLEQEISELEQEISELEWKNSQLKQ

4H319-bA = molecular target: T20, 4H319-bA
T20 chain: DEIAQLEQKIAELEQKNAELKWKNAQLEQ

4H3057-bA = molecular target: T21, 4H3057-bA
T21 chain: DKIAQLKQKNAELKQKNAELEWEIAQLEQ

4H492-bA = molecular target: T22, 4H492-bA
T22 chain: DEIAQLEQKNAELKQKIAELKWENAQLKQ

4H2717-bA = molecular target: T23, 4H2717-bA
T23 chain: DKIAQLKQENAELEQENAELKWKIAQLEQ

4H2692-bA = molecular target: T24, 4H2692-bA
T24 chain: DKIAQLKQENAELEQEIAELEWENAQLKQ

4H741-bA = molecular target: T25, 4H741-bA
T25 chain: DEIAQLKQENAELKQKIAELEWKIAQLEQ

4H40-bA = molecular target: T26, 4H40-bA
T26 chain: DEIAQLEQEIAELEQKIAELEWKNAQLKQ

O13-bA = molecular target: T27, O13-bA
T27 chain: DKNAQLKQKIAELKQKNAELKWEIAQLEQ

O9-bA = molecular target: T28, O9-bA; conditions: mean of both orientations
T28 chain: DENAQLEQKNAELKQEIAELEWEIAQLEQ

O16-bA = molecular target: T29, O16-bA
T29 chain: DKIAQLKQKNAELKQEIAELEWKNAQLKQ

O3-bA = molecular target: T30, O3-bA
T30 chain: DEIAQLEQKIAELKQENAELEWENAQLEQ

O5-bA = molecular target: T31, O5-bA
T31 chain: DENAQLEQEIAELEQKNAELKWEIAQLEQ

O12-bA = molecular target: T32, O12-bA
T32 chain: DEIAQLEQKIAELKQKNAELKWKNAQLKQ

O8-bA = molecular target: T33, O8-bA
T33 chain: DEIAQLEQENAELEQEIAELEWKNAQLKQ

O6-bA = molecular target: T34, O6-bA
T34 chain: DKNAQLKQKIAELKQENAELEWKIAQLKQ

O11-bA = molecular target: T35, O11-bA
T35 chain: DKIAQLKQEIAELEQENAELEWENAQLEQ

O7-bA = molecular target: T36, O7-bA
T36 chain: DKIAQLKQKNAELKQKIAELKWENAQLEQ

O4-bA = molecular target: T37, O4-bA
T37 chain: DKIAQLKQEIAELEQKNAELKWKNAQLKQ

O2-bA = molecular target: T38, O2-bA
T38 chain: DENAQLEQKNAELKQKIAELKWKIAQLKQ

O15-bA = molecular target: T39, O15-bA
T39 chain: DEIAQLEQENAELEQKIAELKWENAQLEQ

O14-bA = molecular target: T40, O14-bA
T40 chain: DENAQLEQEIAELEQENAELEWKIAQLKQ

4H2619-bH = molecular target: T41, 4H2619-bH
T41 chain: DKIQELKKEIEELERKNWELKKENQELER

4H3189-bA = molecular target: T42, 4H3189-bA
T42 chain: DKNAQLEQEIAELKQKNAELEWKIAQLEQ

4H470-bH = molecular target: T43, 4H470-bH
T43 chain: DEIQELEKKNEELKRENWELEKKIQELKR

4H2745-bH = molecular target: T44, 4H2745-bH
T44 chain: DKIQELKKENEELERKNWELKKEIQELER

4H3961-bH = molecular target: T45, 4H3961-bH
T45 chain: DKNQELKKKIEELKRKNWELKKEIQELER

4H2568-bH = molecular target: T46, 4H2568-bH
T46 chain: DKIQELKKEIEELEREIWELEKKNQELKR

4H3907-bH = molecular target: T47, 4H3907-bH
T47 chain: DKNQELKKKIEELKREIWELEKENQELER

4H344-bH = molecular target: T48, 4H344-bH
T48 chain: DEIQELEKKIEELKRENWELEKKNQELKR

4H363-bH = molecular target: T49, 4H363-bH
T49 chain: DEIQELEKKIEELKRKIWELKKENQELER

interaction score (4H2915-bA): 0.904
interaction score (4H2503-bA): 0.82
interaction score (4H348-bA): -1.44
interaction score (4H2588-bA): -1.02
interaction score (4H477-bA): -0.946
interaction score (4H2473-bA): 0.144
interaction score (4H2839-bA): -0.648
interaction score (4H3277-bA): -1.53
interaction score (P11A-bS): -0.676
interaction score (4H319-bA): -0.981
interaction score (4H3057-bA): 0.511
interaction score (4H492-bA): -1.09
interaction score (4H2717-bA): -0.42
interaction score (4H2692-bA): 0.426
interaction score (4H741-bA): -1.42
interaction score (4H40-bA): -0.325
B2: 4H2473-bA (peptide)
chain: DKIAQLEQKNAELEQKIAELKWEIAQLEQ

interaction score (O13-bA): 0.636
interaction score (O9-bA): 1.74
interaction score (O16-bA): 0.945
interaction score (O3-bA): -1.28
interaction score (O5-bA): -0.944
interaction score (O12-bA): -0.395
interaction score (O8-bA): 0.126
interaction score (O6-bA): 0.6
interaction score (O11-bA): 0.88
interaction score (O10-bA; mean of both orientations): 0.0957
interaction score (O7-bA): 0.923
interaction score (O4-bA): -0.577
interaction score (O2-bA): 1.79
interaction score (O15-bA): 0.0908
interaction score (O14-bA): -1.3
B3: O10-bA (peptide)
chain: DKNAQLKQENAELEQKIAELKWKIAQLKQ

The remaining lines, values behind:

B1: 4H3631-bN (peptide)
chain: DKNQQLKQEIQELEQKIQELKWKNQELEQ
interaction score (4H619-bN): -0.252
interaction score (4H3817-bN): -0.125
interaction score (4H3638-bN): -1.15
interaction score (4H584-bN): 0.98
interaction score (4H906-bN): -0.602
interaction score (4H3974-bN): -0.31
interaction score (4H850-bN): -1.06
interaction score (4H3631-bN): -0.0832
interaction score (O10-bA): 0.22
interaction score (4H570-bN): -1.51

B4: 4H2568-bH (peptide)
chain: DKIQELKKEIEELEREIWELEKKNQELKR
interaction score (4H2619-bH): 1.65
interaction score (4H3189-bA): 0.615
interaction score (4H470-bH): -1.26
interaction score (4H2745-bH): -0.189
interaction score (4H3961-bH): 2.42
interaction score (4H2568-bH): 2.17
interaction score (4H3907-bH): 1.31
interaction score (4H344-bH): 0.802
interaction score (4H363-bH): 1.72
